Source: paper doi:10.1101/2020.10.19.346148

Key:
DNA-PKcs = DNA-PKcs (human? (HeLa cells), UniProt P78527 1-4128); test: cryo-EM structure
DNA-PKcs;Ku70;Ku80 = DNA-PKcs;Ku70;Ku80 (human? (HeLa cells);human?;human?, UniProt P78527;P12956;P13010 1-4128;1-609;1-732, ||); test: cryo-EM structure

Sequence of DNA-PKcs (P78527 whole entry): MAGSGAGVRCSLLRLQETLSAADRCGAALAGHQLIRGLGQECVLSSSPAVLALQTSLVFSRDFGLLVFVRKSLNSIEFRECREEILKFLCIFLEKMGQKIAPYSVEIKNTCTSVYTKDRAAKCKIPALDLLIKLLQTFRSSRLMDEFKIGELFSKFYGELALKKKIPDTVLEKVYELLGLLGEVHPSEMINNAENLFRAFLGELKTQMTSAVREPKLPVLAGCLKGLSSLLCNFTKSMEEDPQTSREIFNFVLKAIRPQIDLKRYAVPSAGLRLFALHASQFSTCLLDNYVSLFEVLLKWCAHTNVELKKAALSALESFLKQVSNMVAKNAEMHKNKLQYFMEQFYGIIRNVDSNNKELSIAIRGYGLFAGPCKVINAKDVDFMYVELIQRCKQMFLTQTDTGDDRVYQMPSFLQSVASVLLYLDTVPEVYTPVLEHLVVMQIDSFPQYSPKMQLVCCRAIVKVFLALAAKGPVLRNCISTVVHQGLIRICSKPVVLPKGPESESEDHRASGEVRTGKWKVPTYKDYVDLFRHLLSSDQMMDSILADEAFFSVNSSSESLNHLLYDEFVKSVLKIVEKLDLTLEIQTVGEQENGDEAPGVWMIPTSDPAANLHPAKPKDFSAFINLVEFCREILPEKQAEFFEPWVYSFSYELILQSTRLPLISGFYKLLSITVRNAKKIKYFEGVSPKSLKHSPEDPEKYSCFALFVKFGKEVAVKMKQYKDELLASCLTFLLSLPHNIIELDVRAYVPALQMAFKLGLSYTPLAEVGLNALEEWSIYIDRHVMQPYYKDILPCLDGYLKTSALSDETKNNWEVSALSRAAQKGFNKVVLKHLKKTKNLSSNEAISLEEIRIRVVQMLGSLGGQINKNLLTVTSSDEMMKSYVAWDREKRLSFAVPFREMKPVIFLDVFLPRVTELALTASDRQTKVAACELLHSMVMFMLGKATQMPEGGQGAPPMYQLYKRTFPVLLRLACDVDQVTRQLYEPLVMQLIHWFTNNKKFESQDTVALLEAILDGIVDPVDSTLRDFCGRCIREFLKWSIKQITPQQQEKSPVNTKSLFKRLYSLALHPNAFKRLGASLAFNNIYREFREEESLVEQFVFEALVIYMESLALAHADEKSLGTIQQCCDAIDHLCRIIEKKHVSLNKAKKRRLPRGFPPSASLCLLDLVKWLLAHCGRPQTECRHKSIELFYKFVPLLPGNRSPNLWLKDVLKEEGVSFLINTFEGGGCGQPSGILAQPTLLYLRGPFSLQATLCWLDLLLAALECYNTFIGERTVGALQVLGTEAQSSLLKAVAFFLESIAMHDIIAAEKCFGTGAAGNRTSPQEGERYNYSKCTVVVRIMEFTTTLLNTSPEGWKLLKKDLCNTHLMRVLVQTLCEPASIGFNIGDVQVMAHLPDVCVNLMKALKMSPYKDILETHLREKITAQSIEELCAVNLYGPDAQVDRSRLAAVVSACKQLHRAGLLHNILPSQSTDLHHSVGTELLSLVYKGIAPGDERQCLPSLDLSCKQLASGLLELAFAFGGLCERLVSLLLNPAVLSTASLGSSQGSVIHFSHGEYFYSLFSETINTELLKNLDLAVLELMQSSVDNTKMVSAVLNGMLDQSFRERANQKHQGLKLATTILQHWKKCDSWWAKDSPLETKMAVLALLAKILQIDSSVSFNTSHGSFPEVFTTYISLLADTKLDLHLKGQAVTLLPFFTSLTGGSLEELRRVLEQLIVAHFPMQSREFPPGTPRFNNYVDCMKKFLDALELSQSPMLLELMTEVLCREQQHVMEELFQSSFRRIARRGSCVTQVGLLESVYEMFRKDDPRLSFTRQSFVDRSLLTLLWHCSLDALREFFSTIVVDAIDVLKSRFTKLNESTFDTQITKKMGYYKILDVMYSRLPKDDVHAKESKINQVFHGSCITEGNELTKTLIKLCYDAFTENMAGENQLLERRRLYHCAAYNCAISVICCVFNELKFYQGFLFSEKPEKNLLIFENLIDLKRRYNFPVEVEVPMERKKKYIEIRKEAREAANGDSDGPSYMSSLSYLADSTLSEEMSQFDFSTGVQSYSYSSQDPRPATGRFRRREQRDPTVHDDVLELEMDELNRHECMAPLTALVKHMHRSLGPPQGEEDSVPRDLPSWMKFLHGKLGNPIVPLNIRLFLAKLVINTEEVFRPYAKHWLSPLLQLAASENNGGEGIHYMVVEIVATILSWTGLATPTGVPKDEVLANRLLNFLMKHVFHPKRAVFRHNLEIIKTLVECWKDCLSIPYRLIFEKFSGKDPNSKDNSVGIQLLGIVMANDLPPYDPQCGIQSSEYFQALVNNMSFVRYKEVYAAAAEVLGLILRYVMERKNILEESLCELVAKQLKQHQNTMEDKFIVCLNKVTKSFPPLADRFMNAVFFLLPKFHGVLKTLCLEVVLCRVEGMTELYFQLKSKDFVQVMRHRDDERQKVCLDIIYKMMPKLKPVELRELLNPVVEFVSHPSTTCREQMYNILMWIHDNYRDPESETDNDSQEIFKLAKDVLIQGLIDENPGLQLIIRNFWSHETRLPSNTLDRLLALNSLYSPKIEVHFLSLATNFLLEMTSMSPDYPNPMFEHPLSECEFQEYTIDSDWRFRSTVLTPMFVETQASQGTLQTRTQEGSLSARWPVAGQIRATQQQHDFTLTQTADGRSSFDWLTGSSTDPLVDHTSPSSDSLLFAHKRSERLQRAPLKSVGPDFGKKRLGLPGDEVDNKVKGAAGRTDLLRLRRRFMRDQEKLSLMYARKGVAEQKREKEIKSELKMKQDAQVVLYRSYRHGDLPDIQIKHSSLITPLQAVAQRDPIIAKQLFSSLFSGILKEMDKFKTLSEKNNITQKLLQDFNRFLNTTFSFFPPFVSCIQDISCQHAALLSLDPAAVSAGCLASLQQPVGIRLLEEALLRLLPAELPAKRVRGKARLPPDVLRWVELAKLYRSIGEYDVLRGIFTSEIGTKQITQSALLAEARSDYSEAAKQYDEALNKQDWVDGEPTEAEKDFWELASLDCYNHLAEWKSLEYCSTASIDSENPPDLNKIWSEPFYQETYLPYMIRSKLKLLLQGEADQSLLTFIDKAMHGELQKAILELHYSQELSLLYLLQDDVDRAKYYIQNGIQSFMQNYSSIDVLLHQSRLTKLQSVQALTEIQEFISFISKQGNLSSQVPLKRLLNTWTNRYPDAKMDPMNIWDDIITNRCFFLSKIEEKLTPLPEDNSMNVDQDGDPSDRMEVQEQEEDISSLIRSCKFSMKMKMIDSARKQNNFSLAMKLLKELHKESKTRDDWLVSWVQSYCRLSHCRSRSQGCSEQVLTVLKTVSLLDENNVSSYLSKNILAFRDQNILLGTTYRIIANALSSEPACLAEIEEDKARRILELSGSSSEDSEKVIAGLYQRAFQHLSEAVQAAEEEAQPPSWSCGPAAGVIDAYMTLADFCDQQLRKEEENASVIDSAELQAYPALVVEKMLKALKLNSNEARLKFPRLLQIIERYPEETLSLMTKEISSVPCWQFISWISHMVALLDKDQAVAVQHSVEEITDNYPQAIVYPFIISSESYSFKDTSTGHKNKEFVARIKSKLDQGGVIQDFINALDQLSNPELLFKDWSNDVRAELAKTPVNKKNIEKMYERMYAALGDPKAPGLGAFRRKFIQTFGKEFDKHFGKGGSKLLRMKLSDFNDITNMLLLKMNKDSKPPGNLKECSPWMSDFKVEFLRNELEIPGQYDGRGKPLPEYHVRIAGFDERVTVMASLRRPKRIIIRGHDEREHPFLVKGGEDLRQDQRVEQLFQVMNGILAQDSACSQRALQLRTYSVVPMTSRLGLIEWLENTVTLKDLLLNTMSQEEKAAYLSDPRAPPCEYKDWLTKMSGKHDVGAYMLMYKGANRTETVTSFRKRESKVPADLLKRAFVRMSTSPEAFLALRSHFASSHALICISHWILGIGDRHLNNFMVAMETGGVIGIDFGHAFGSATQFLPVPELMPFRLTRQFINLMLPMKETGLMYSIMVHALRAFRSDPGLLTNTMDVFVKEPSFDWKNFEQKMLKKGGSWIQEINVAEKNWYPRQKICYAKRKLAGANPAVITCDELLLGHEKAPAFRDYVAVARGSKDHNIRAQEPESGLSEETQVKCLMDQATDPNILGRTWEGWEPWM

B1: 40 bp blunt DNA with two internal nicks (dsDNA)
DNA 1: GCATGCTCTACTGCTTCGATATCG
DNA 2: AAGCAGTAGAGCATGC
DNA 3: GCATGCTCTACTGCTTCGATATCG
DNA 4: AAGCAGTAGAGCATGC
**Q.** What does the source list for B1?
**A.** binding result (DNA-PKcs): binds; binding result (DNA-PKcs;Ku70;Ku80): binds
